Data as given in publication PMC8463545, “The predatory soil bacterium Lysobacter reprograms quorum sensing system to regulate antifungal antibiotic production in a cyclic-di-GMP-independent manner” (Communications Biology, 2021).

T1: RpfG-MBP (Lysobacter enzymogenes)
T1 chain: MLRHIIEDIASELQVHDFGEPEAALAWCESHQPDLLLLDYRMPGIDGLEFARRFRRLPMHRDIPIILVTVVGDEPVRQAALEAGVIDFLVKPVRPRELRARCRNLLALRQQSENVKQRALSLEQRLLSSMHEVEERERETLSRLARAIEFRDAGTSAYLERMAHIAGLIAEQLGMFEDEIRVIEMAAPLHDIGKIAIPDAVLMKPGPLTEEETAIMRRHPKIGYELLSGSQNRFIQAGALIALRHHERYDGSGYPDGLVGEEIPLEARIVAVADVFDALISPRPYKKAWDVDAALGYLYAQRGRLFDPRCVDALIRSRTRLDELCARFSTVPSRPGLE

B1: HtsH3C-Myc-His (domain or fragment)
chain: not shown
modifications: Phosphorylated as purified (CIAP-sensitive). Primers give (M)AKTRFL... to ...ARRGEG (C-terminus). Positions are inferred from the candidate's His-kinase domain start. Assignment of this entry to …
B2: HtsH1C-Flag-His (domain or fragment)
chain: not shown
modifications: Phosphorylated as purified (CIAP-sensitive). Limits from the expression primers: (M)AKTRFL... to ...LFEREA, just before the His-kinase domain to the C-terminus. The start codon Met and Flag/His tags …
B3: HtsH2C-HA-His (domain or fragment)
chain: not shown
modifications: Phosphorylated as purified (CIAP-sensitive). Primers give (M)AKTRFL... to ...DAADAP (C-terminus). The candidate lists no features, so the start is estimated from the paralogues' fragment lengths and …

Key:
Details in all cases: both partners purified
[1] = molecular target: T1, RpfG-MBP; assay: SPR; RpfG-MBP on the sensor, HtsH cytoplasmic fragments bound to it; conditions not given
[2] = molecular target: HtsH2C-HA-His (Lysobacter enzymogenes); assay: SPR; HtsH cytoplasmic fragments against each other (Supplementary Fig. 5); who was immobilised and conditions not told
[3] = molecular target: HtsH3C-Myc-His (Lysobacter enzymogenes); assay: as above

Binder	Kd [1]	Kd [2]	Kd [3]
B1	0.168 µM	–	–
B2	0.0668 µM	0.0962 µM	0.16 µM
B3	0.3 µM	–	0.178 µM
